Laboratory results: paper PMC9481602 (2022)

Experiments:
[1] = target: ubiquitin acetylated at K48 (UniProt P0CG48 1-76, acetyllysine (AcK) at position 48); experiment: NMR
nonmodified ubiquitin = nonmodified ubiquitin (UniProt P0CG48 1-76); experiment: NMR

Binder: RFQQQLEQLNAMGFLNREANLQALIATGGDINAAIERLLGS (domain or fragment) [UBA domain of human Ubiquilin-2]
- Kd [1]: 1300 nM
- Kd (nonmodified ubiquitin): 500 nM
